Measured values reported in patent publication US20140030286A1 (COMMISSARIAT A L ENERGIE ATOMIQUE ET AUX ENERGIES …, published 2014).

Key:
[1] = biological target: T1, In (derivative of In without His tag, co-expressed with HisJo) (Streptococcus pneumoniae); assay: electrospray mass spectrometry of the purified complex (measured 25589, calculated 25606.03; loss of 17 Da)
T1 construct: Expressed from MCSII of pETDuet (pETDuet-In, pETDuet-HisJoIn); also called In peptide
T1 chain: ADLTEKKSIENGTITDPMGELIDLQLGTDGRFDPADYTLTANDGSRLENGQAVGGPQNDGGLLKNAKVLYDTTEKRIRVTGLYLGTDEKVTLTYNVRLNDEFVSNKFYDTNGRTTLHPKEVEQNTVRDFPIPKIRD

HisIn = biological target: T2, HisIn (Streptococcus pneumoniae); assay: electrospray mass spectrometry of the purified complex (measured 26772, calculated 26788.16)
T2 construct: Recombinant, made in E. coli from pACYCDuet-HisIn; also called In peptide; In protein
T2 chain: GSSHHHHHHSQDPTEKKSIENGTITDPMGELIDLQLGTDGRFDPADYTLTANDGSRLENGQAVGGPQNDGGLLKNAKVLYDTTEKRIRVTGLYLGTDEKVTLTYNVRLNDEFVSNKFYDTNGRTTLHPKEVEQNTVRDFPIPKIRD

[2] = biological target: the molecule itself; assay: SDS-PAGE with and without 25 mM DTT, disulphide-linked homodimer (FIG. 12)
[3] = biological target: the molecule itself; assay: gel filtration (S200 10/300GL), self-association

B1: HisJo (peptide)
chain: GSSHHHHHHSQDPSDQYPQTGTYPDVQTPYQIIKVDGSEKNGQHKALNPNPYERVIPEGTLSKRIYQVNNLDDNQYGIELTVSGKTVYEQKD
notes: Recombinant, made in E. coli from pETDuet-HisJo; The Jo peptide is RrgA 144-218; the derivative has two more residues at each end; also called Jo peptide; Jo protein
- binding result [1]: binds
- binding result (HisIn): binds

B2: Jo-B1CK-In (other)
chain: MGSSHHHHHHSQDPSDQYPQTGTYPDVQTPYQIIKVDGSEKNGQHKALNPNPYERVIPEGTLSKRIYQVNNLDDNQYGIELTVSGKTVYEQKDGIPEISQRTTIVIQKQTFISQHSCVNSTELDELIQQIVAAINAGIIPLGNTSNQISKLTEKKSIENGTITDPMGELIDLQLGTDGRFDPADYTLTANDGSRLENGQAVGGPQNDGGLLKNAKVLYDTTEKRIRVTGLYLGTDEKVTLTYNVRLNDEFVSNKFYDTNGRTTLHPKEVEQNTVRDFPIPKIRD
notes: Circularised within the chain by the Jo-In isopeptide bond; Forms a disulphide-linked dimer through the cysteine of the B1CK loop; also called fusion Jo-B1CK-In; recombinant protein Jo-B1CK-In
- binding result [2]: binds

B3: FusJoIn (other)
chain: GSSHHHHHHSQDPSDQYPQTGTYPDVQTPYQIIKVDGSEKNGQHKALNPNPYERVIPEGTLSKRIYQVNNLDDNQYGIELTVSGKTVYEQKDGSTPGSVTEKKSIENGTITDPMGELIDLQLGTDGRFDPADYTLTANDGSRLENGQAVGGPQNDGGLLKNAKVLYDTTEKRIRVTGLYLGTDEKVTLTYNVRLNDEFVSNKFYDTNGRTTLHPKEVEQNTVRDFPIPKIRD
notes: Single chain with the isopeptide bond inside the chain; Used as the control for the dimerisation of Jo-B1CK-In; also called FusJoIn complex; Jo-In fused via a linker of 7 amino acids
- binding result [3]: no binding
